Data from article PMC2705190.

What was measured:
[1] = molecular target: HIV-1 integrase, wild type, full-length (HIV-1); assay: cross-linking; BS3 (2-0.2 mM), 3 µM IN or 1.5 µM each of two mutants, 0.75 M NaCl, 2 mM MgSO4, 25 µM ZnCl2, 25 mM Hepes-NaOH pH 7.5, 30 min at 18°C; SDS-PAGE, Sypro Orange
[2] = molecular target: HIV-1 integrase, wild type, full-length (HIV-1); assay: SEC; analytical SEC of IN alone (or an equimolar mixture of two mutants); Shodex KW403-4F column on ice, 750 mM NaCl, 10 mM MgCl2, 20 mM HEPES-NaOH pH 7.0; 35 µl IN at 0.6 mg/ml with 25 µM ZnCl2 and 2.8 mM CHAPS
[3] = molecular target: HIV-1 integrase, wild type, full-length (HIV-1); assay: SEC; analytical SEC as for IN alone, but 0.3 mg/ml LEDGF IBD pre-incubated with IN on ice for 5 min before injection; Shodex KW403-4F on ice, 750 mM NaCl, 10 mM MgCl2, 20 mM HEPES-NaOH pH 7.0

Substance	stoichiometry N [1]	stoichiometry N [2]	stoichiometry N (per IN tetramer) [3]
HIV-1 integrase, wild type, full-length (enzyme)	4	4	–
integrase binding domain of lens epithelium derived growth factor (LEDGF IBD) (from UniProt O75475 1-435) (domain or fragment)	–	–	4
